Source: the nanobody polyreactivity screen of Harvey et al. (2022)

Experiment: yeast display, Sf9 membrane polyspecificity reagent, FACS + sequencing; frameworks hold sequencing errors
Method in brief: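 Galactose-induced (36–48 hours) yeast carrying a synthetic nanobody display library were exposed to 10% biotinylated, detergent-solubilized Sf9 membrane reagent at 4 °C for 1 hour. FACS followed streptavidin microbead enrichment, using low and high (top ~1%) gates for expression (anti-HA) and reagent binding (streptavidin). Colony PCR, MiSeq 2 × 250 sequencing and CDR-length filtering followed. Labels for polyreactivity reflect the gate of origin.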

Row | Sequence | polyreactivity (PSR sort gate)
1 | QVQLVESGVGLVQAGGSLRLSCAASGSTFRGYAMGWYRQAPGKERELVAAISSSGGRTYYAYSVKGRFTISRDNAKNTVYLQMNSLKPEDTAVYYCNAASKNSVRYAYQNYDYWGQGTQVTVSS | high polyreactivity
2 | QVQLVESGVGLVQAGGSLRLSCAASGYTFRTNVMGWYRQAPGKERELVATINWRGGSTYYADSVKGRFTISRDNAKNTVYLQMNSLKPEDTAVYYCAADPGPYYDWGYDYWGQGTQVTVSS | low polyreactivity
3 | QVQLVESGVGLVQAGGSLRLSCADSGSNFRYTMGCYRQAPWKERELVAAINRGASTYYADSVKGRFTISRDNAKKTVYLQMNSLKPVDNAVYYCAASVGTQGYHGDYWGQGTQVTVSS | high polyreactivity
4 | QVQLVESGVGLVQAGGSLRLSCAGSGFNFIANAMGWYRQAPGKERELVAAISDGGSTYYADSVKGRFTISRDNAKNTVYLQMNSLKPEDTAVYYCAKDVTWAGHYDYWGQGTQVTVSS | low polyreactivity
5 | QVQLVESGVGLVQAGGSLRLSCAPSGFTFGRYAMGWYRQAPGKEREFVASISRSGGSTNYADSVKGRFTISRDNAKNTVYLQMNSLKPEDTAVYYCARDSWLHYRWGYDYWGQGTQVTVSS | high polyreactivity
6 | QVQLVESGVGLVQAGGSLRLSSAASGFTFVSNDMGWYRQAPGKERELVAAIRYRGGDTYYADSVKGRFTISRDNAKNTVYLQMNSMKPEDTAVYYCAVDVATYTAGWYYHGYDYWGQGTQVTVSS | low polyreactivity
7 | QVQLVESGVGLVQAGGSLRLSSADSGRTSPGNAMGWYRQAPGKETELVAAINVSGGSTYYADSVKGRFTISRDNAKNTVYLQMNSLKPEDTAVYDCATDTGYPYSYDLYDSYYWGQGTQVTVSS | low polyreactivity
8 | QVQLVESGVGLVQAGGSLRVSCAASGSICNYYAMVWYRQAPGKERELVATISSGGNTKYADSVKRRFTISRDNAKNTVSLQMNSQKPEDTAVYYCAARWQHSGYRDRYWYDYWGQGTQVTVSS | low polyreactivity
9 | QVQLVESGVGLVQAGGSLSLSCAASGRTFAYNAMGWYRQAAGKERELVAAINGDGGSTYYADSVKGRFTISRDNAMNTDYLQMISLKPEDTAVYYCAADLKYDGAYDYWGQGTQVTVSS | high polyreactivity
10 | QVQLVESGVGLVQSGGSLRLRCAASGFTFVSYALGWYRQAPGKERELVASISKRGGTTYYADSVKGRFTISRENAKNTVYLQMNSLKPEDTAVYYCNARDTRRYVTYDSGYDYWGQGTQVTVSS | high polyreactivity
11 | QVQLVESLVGLVQAVGSLRLSCAAYGFIFAFDSMGCYRHAPRKERELVAAIRTGGSKNYADSVKGRFTISRDNAKTTVYLQMNSLKPEDTAVYNCAANGRVGFWRWERDYWGQGTQVTVSS | high polyreactivity
12 | QVQLVESRGGIVQAGGSLRLSCAASGFTFYFYAKGWYRQAPGKERELVAGISRGSRTNYADSVKGRFTISRDNAKNTVYLQMNSLKPEDTAVYYCAAEVSYWGLGTQVTVSS | low polyreactivity
13 | QVQLVESRGGKVQAVGSLRLSCAASGLTFYTYAMGWYRQEPGKDRELVAAIRYRGGRSNYADSVKGRFTISRDNANNTVYLQMNSLKPEDTAVYYCAARSILVTQAYGYWGQGTQVNVSS | high polyreactivity
14 | QVQLVESRGGLVQAEGSLRLSCAASGYTFTSNDMGWYRQAPGKERELVAAITWSGGTTYYADSVKGRFTISRDNAKNTVYLQMNSLKPEDTSVYYFAADVSLVYPYSYRYYYWGQGTQVTVSS | low polyreactivity
15 | QVQLVESRGGLVQAGGRLRLSCAASGSIFDWYAMGWYRQAPGKERELVADITWSGDSTYYADSVKGRFTISRDNAKNTVYLQMNSLKPEDTAVYYCAADIWFNTYYEYDYWGQGTQVTVSS | high polyreactivity
16 | QVQLVESRGGLVQAGGSHRLSCAASGITILQYAMGWYRQAPRKERELVAAISRRGGNTYYADSVKGRFTISRDNAKNTVYLQMNSLKPEDTAVYYCAALSSFQSEYDYWGQGTQLTVSS | high polyreactivity
17 | QVQLVESRGGLVQAGGSIRLSCAASGITFGSYAMGWYRQAPGKERELVAAIDTSGDDTYYADSVKGRFTISRDNAKNTVYLQMNSLNPEDTAVYYCNAVSTASDEYDYWGQGTQVTVSS | low polyreactivity
18 | QVQLVESRGGLVQAGGSLGLSCAASGRIFSGYAMGWYRKAPGKERELVAAISGSGGTTYYADSVKGRFTISRDNAKNTVYLQINSLKPEDTAVYYCAVVIGVGYGYYYWGQGTQVTVSS | low polyreactivity
19 | QVQLVESRGGLVQAGGSLRISCAASGNIFLDYVMGWSRQAPGKERELVAAINSGGSTYYADSVKGRFTISSDNAKNTVYLQMNSLKPEDTAVYYCAADDYYKFDYWGQGTQVTVSS | low polyreactivity
20 | QVQLVESRGGLVQAGGSLRLSCAASGFIFNYYVMGRYRQAPGKERELVAGITKRGDRTYYADSVKGRFTISRDNAKNTVYLQMNSLKPEDTAVYYCAALARSFANSYGYWGQGTQVTVSS | high polyreactivity
21 | QVQLVESRGGLVQAGGSLRLSCAASGFIFSYYAMGWYRQAPGKERELVAAISGLGGSTYYADSVKGRFTISRDNAKNTVYLQMNSLKPEDTAVYYCAATTLRYYRHGDYWGQGTQVTVSS | low polyreactivity
22 | QVQLVESRGGLVQAGGSLRLSCAASGFIFVSYTMGWYRQAPGKERDLVATITLSDGSTYYADSVQGRFTISRDNAKNTVYLQMNSLKPEDTAVYSGNKDKVVVRYDYWGQGTQVTVSS | low polyreactivity

Row | Sequence | polyreactivity (PSR sort gate)
23 | QVQLVESRGGLVQAGGSLRLSCAASGFIITQYAMGWYRQAPGKERELVAAISGRGGSTYYADSVKGRFTISRDNAKNTVYLQMNSLIPEDTAVYYCNTVRIGPPQDYDYWGQGTQVTVSS | high polyreactivity
24 | QVQLVESRGGLVQAGGSLRLSCAASGFTFDIYAMGWYRQAPGKERELVAAINYSGARTYYADSVKGRFTISRDNAKNTVYLQMNSLNPEDTAVYYCNRAARIKYDYWGQGTQVTVSS | high polyreactivity
25 | QVQLVESRGGLVQAGGSLRLSCAASGFTFIGYAMGWYRPEPGKERELVAPITQSGGSTFYADSVKGRFTISRENAKNTVYLQMNSLKPEDTAVDDCNAYRKFRYCGQGTQVTVSS | low polyreactivity
26 | QVQLVESRGGLVQAGGSLRLSCAASGFTFSWYAMGWYRQAPGKERELVAAITRSGGSTNYADSVKGRFTMSRDNAKNTVYLQMNSLKPEDTAVYYCAARYSPGFGYWGKGTQVTVSS | high polyreactivity
27 | QVQLVESRGGLVQAGGSLRLSCAASGITSRFYVMGWYRKAPGKERELVAAISTRGTSTYYADSVKGRFTLSRDNAKNTVYLQMNSLKPEDTAVYYCAAVGGYPYQYPYGSWGQGTQVTVSS | high polyreactivity
28 | QVQLVESRGGLVQAGGSLRLSCAASGPTFLINAMGCYRQAPGKETELVAEITGRGSSTYYADSVKGRFTISRDNAINTVYLQMNSLKAEDTAVYYCNAVLRKMTYDYWGQGTQVTVSS | high polyreactivity
29 | QVQLVESRGGLVQAGGSLRLSCAASGRIFVVYTMGWYRQAPGKERELVAAISWRGGTTYYADSVKRRFTISRDNAKTTVYLQMTSLIPEDTAVSYCATREWSPRGSYDYSGQGTQVTVSS | high polyreactivity
30 | QVQLVESRGGLVQAGGSLRLSCAASGRTFTLNAMGWYRQAPGKERELVARIDWRGITYADSVKGRFTISRDNAKNTVYLQMNSLKPEDTAVYYCAADYVQGFGFYYQWHYDYWGQGTQVTVSS | low polyreactivity
31 | QVQLVESRGGLVQAGGSLRLSCAASGSIFYSNFMGWYRPAPGKERELVARITDAGSTNYADSVKGRFTISRDNAKNTVYLQMNSQKPEDTAVYYCNARLVIYTYDYWGQGTQVTVSS | low polyreactivity
32 | QVQLVESRGGLVQAGGSLRLSCAASGSTFSANTMGWNRQAPGKERELVAGITNTGDTYYADSVKGRFTLSRDNAKNTVYLQMNSLKPEDTAVYYCAADSWRLTDGAYWSTVYYWGQGNQVTVSS | low polyreactivity
33 | QVQLVESRGGLVQAGGSLRLSCAASGSTFYFYDMGLYRQAPGKERELVGAISSSGGDTYYADSVKGRFTISRDNAKNTVYLQMNSLKPEDTAVYYCAAGQLYSGYEYWGQGTQVTVSS | low polyreactivity
34 | QVQLVESRGGLVQAGGSLRLSCAAYGFTFPNNAMGWNRQAPGKERELVAAITWSGRSTYADSVKGRFTISRDNAKNTVYLQMNSLKPEDTAVDYCYTRGTYLSKTLPSAYDYWGQGTQVIVSS | low polyreactivity
35 | QVQLVESRGGLVQAGGSLRLSCADSGRIFWYYDMGCYRQAPWKDRELVAAITSGGRTYYADYVKGRFTISRDNAKNTVYLQMNSLKPEDTAVYYCAAEGFYTSGSPYSGGLDYWGQGTQVTVSS | low polyreactivity
36 | QVQLVESRGGLVQAGGSLRLSCAPSGSTFHYYAMGWYRQAQGKERELDAAISDRDGGTFYADSVKGRFTISRDNATNTVYLQINSLKPEDTAVYYCYARKRGARFILGYDYWGQGPQVTVSS | low polyreactivity
37 | QVQLVESRGGLVQAGGSLRLSFGASGRTFRWYAMVWYRQAPGKERELVAAITYSVGSTYYADSVKGRFTISRDNAKNTVYLQMNSLKPEDSAVYSCAADSYPYRYRGKYSRLDYWGQGTQVTVSS | low polyreactivity
38 | QVQLVESRGGLVQAGGSLRLSSAASGLTLYGYTMGWYRQAPGKERELVATMTSGRDSTYYADSVKGRFTISGDNAKNTFYLEMHCLKPEDTAVYYCGAPYAGWRDGGDYWGQGTQVTVSS | low polyreactivity
39 | QVQLVESRGGLVQAGGTLRLSCAPSGLTSYGNTRGWDIPAPGKERELVAAISKRGTSTYYADSVKGRFTISRDNAMNTVYLQMNSLKPEDTAVYYCAAAYRGREVEYISWGQGTQVTVSS | high polyreactivity
40 | QVQLVESRGGVVQAGGSLRLSSDDSGFTFYYYAMGWYRQAPGKERQLVAPITKSGGSTYYADSVKWRFTISRDNSKNSLYVKFNRLKPEDTAVYYCNKVTYSSDQYFGGDGYFWGQGTQVTVTS | high polyreactivity
41 | QVQLVESRGRLDQAGGSLRLSCAAYARIFAVYAMGWYRQAPGKESEFVATITYNAGSTYYADSVKGRFTISRDNAKNTVNLQMNSLKPEDTAVYYCAVELDSEPAYEPWTEYDYWGQGTQVTVSS | low polyreactivity
42 | QVQLVESRGRLVQAGGSLRLSCAASGITFYVYTMGWYRQAPGKERELVAAINGSGGSTNYADSVKGRFTISRDNAKNSVYLHMNSLKTEDTAVYYCAADWSLRLYDYWGQGTQVTVSS | low polyreactivity
43 | QVQLVESRGVLVQAGGSLRLSCAASGFTFDYNAMGWYRQAPGKERELVAVISSSGSRTYYADSVKGRFTISRDNAKNTVYLQMNSLKPVDTAVYYCARDNWQWYPSTWYDYWGQGTQVTVSS | high polyreactivity
